Results: article PMC6548343 (Journal of Molecular Cell Biology, 2018)
Where “and” joins values, the source holds several entries; their conditions need not be identical. Identical values can stand only once.

Target: the molecule itself
Experiment: EM classification and 3D reconstruction; INO80 sub-complexes and separated Rvb1/Rvb2 rings in the Mono Q fraction of the Ino80-2×FLAG purification

B1: Rvb1/Rvb2 (complex, S. cerevisiae)
chain 1: MVAISEVKENPGVNSSNSGAVTRTAAHTHIKGLGLDESGVAKRVEGGFVGQIEAREACGVIVDLIKAKKMSGRAILLAGGPSTGKTALALAISQELGPKVPFCPLVGSELYSVEVKKTETLMENFRRAIGLRIKETKEVYEGEVTELTPEDAENPLGGYGKTISHVIVGLKSAKGTKTLRLDPTIYESIQREKVSIGDVIYIEANTGAVKRVGRSDAYATEFDLETEEYVPLPKGEVHKKKEIVQDVTLHDLDVANARPQGGQDVISMMGQLLKPKKTEITEKLRQEVNKVVAKYIDQGVAELIPGVLFIDEVNMLDIEIFTYLNKALESNIAPVVVLASNRGMTTVRGTEDVISPHGVPPDLIDRLLIVRTLPYDKDEIRTIIERRATVERLQVESSALDLLATMGTETSLRYALQLLAPCGILAQTSNRKEIVVNDVNEAKLLFLDAKRSTKILETSANYL
chain 2: MSIQTSDPNETSDLKSLSLIAAHSHITGLGLDENLQPRPTSEGMVGQLQARRAAGVILKMVQNGTIAGRAVLVAGPPSTGKTALAMGVSQSLGKDVPFTAIAGSEIFSLELSKTEALTQAFRKSIGIKIKEETELIEGEVVEIQIDRSITGGHKQGKLTIKTTDMETIYELGNKMIDGLTKEKVLAGDVISIDKASGKITKLGRSFARSRDYDAMGADTRFVQCPEGELQKRKTVVHTVSLHEIDVINSRTQGFLALFTGDTGEIRSEVRDQINTKVAEWKEEGKAEIVPGVLFIDEVHMLDIECFSFINRALEDEFAPIVMMATNRGVSKTRGTNYKSPHGLPLDLLDRSIIITTKSYNEQEIKTILSIRAQEEEVELSSDALDLLTKTGVETSLRYSSNLISVAQQIAMKRKNNTVEVEDVKRAYLLFLDSARSVKYVQENESQYIDDQGNVQISIAKSADPDAMDTTE
notes: Rvb1, AAA+ ATPase subunit, S. cerevisiae; Rvb2, AAA+ ATPase subunit, S. cerevisiae; Seen as a hexameric ring in INO80 and as free hexamers and dodecamers; The fitted models PDB 2XSZ and 5OAF are of the human proteins; also called Rvb1/Rvb2 hexameric ring; Rvb1-Rvb2 ring; source: endogenous, S. cerevisiae, co-purified with tagged Ino80 (FLAG resin, Mono Q)
- stoichiometry N: 12 and 6
